The text below walks through data of the Human Domainome abundance scans (Beltran et al. 2025).

± gives the uncertainty stated by the source.

B1: POU domain, class 4, transcription factor 2, residues 256 to 327; numbered along this chain, Q12837 (parent)
chain: RDLEAFAERFKQRRIKLGVTQADVGSALANLKIPGVGSLSQSTICRFESLTLSHNNMIALKPILQAWLEEAE

The data set covers variants of B1. The data set is described as follows: abundance fitness (aPCA) (normalised: wild type 0, dead -1); higher = more abundant; growth selection in yeast, the domain comes from the species named. The following applies: Homo sapiens.
With RDLEAFAERFKQRRIKLGVTQADVGSALANLKIPGVGSLSQSTICRFESLTLSHNPMIALKPILQAWLEEAE [N56P], the abundance fitness is -0.52 ± 0.082.

For the variant RDLEAFAERFKQRRIKLGVTQADVGSALANLKIPGVGSLSQSTICRFESLTLSHNWMIALKPILQAWLEEAE [N56W], the abundance fitness was -0.057 ± 0.13.

With RDLEAFAERFKQRRIKLGVTQADVGSALANLKIPGVGSLSQSTICRFESLTLSHNVMIALKPILQAWLEEAE [N56V], the abundance fitness turned out to be 0.083 ± 0.2. In the case of RDLEAFAERFKQRRIKLGVTQADVGSALANLKIPGVGSLSQSTICRFESLTLSHNFMIALKPILQAWLEEAE [N56F] it was -0.149 ± 0.24; in that of RDLEAFAERFKQRRIKLGVTQADVGSALANLKIPGVGSLSQSTICRFESLTLSHNCMIALKPILQAWLEEAE [N56C], 0.146 ± 0.12; in that of RDLEAFAERFKQRRIKLGVTQADVGSALANLKIPGVGSLSQSTICRFESLTLSHNRMIALKPILQAWLEEAE [N56R], -0.134 ± 0.084. On to RDLEAFAERFKQRRIKLGVTQADVGSALANLKIPGVGSLSQSTICRFESLTLSHNTMIALKPILQAWLEEAE [N56T], for which the abundance fitness was -0.023 ± 0.25. Take RDLEAFAERFKQRRIKLGVTQADVGSALANLKIPGVGSLSQSTICRFESLTLSHNLMIALKPILQAWLEEAE [N56L]: the abundance fitness came out at 0.07 ± 0.077. For RDLEAFAERFKQRRIKLGVTQADVGSALANLKIPGVGSLSQSTICRFESLTLSHNYMIALKPILQAWLEEAE [N56Y] the value was -0.248 ± 0.45; for RDLEAFAERFKQRRIKLGVTQADVGSALANLKIPGVGSLSQSTICRFESLTLSHNMMIALKPILQAWLEEAE [N56M], -0.304 ± 0.31. In the case of RDLEAFAERFKQRRIKLGVTQADVGSALANLKIPGVGSLSQSTICRFESLTLSHNAMIALKPILQAWLEEAE [N56A], the abundance fitness was -0.041 ± 0.094. With RDLEAFAERFKQRRIKLGVTQADVGSALANLKIPGVGSLSQSTICRFESLTLSHNDMIALKPILQAWLEEAE [N56D], the abundance fitness was 0.281 ± 0.31. In the case of RDLEAFAERFKQRRIKLGVTQADVGSALANLKIPGVGSLSQSTICRFESLTLSHNHMIALKPILQAWLEEAE [N56H] it was 0.128 ± 0.16.

On to RDLEAFAERFKQRRIKLGVTQADVGSALANLKIPGVGSLSQSTICRFESLTLSHNGMIALKPILQAWLEEAE [N56G], for which the abundance fitness was -0.024 ± 0.13. Turning to RDLEAFAERFKQRRIKLGVTQADVGSALANLKIPGVGSLSQSTICRFESLTLSHNSMIALKPILQAWLEEAE [N56S], the abundance fitness is 0.077 ± 0.078. For RDLEAFAERFKQRRIKLGVTQADVGSALANLKIPGVGSLSQSTICRFESLTLSHNKMIALKPILQAWLEEAE [N56K] the value was 0.048 ± 0.17; for RDLEAFAERFKQRRIKLGVTQADVGSALANLKIPGVGSLSQSTICRFESLTLSHNNMIAHKPILQAWLEEAE [L60H], -0.944 ± 0.47; for RDLEAFAERFKQRRIKLGVTQADVGSALANLKIPGVGSLSQSTICRFESLTLSHNNMIADKPILQAWLEEAE [L60D], -0.614 ± 0.21.

Turning to RDLEAFAERFKQRRIKLGVTQADVGSALANLKIPGVGSLSQSTICRFESLTLSHNNMIAAKPILQAWLEEAE [L60A], the abundance fitness is -0.147 ± 0.11. In the case of RDLEAFAERFKQRRIKLGVTQADVGSALANLKIPGVGSLSQSTICRFESLTLSHNNMIAEKPILQAWLEEAE [L60E] it was -0.866 ± 0.21. In the case of RDLEAFAERFKQRRIKLGVTQADVGSALANLKIPGVGSLSQSTICRFESLTLSHNNMIACKPILQAWLEEAE [L60C] it was -0.12 ± 0.07. Take RDLEAFAERFKQRRIKLGVTQADVGSALANLKIPGVGSLSQSTICRFESLTLSHNNMIAGKPILQAWLEEAE [L60G]: the abundance fitness is -0.713 ± 0.13. In the case of RDLEAFAERFKQRRIKLGVTQADVGSALANLKIPGVGSLSQSTICRFESLTLSHNNMIAFKPILQAWLEEAE [L60F] it was -0.29 ± 0.14.

On to RDLEAFAERFKQRRIKLGVTQADVGSALANLKIPGVGSLSQSTICRFESLTLSHNNHIALKPILQAWLEEAE [M57H], for which the abundance fitness was -0.547 ± 0.16.

In the case of RDLEAFAERFKQRRIKLGVTQADVGSALANLKIPGVGSLSQSTICRFESLTLSHNNFIALKPILQAWLEEAE [M57F], the abundance fitness is -0.428 ± 0.26. In the case of RDLEAFAERFKQRRIKLGVTQADVGSALANLKIPGVGSLSQSTICRFESLTLSHNNTIALKPILQAWLEEAE [M57T] it was -0.701 ± 0.13. Take RDLEAFAERFKQRRIKLGVTQADVGSALANLKIPGVGSLSQSTICRFESLTLSHNNGIALKPILQAWLEEAE [M57G]: the abundance fitness is -0.41 ± 0.075. As for RDLEAFAERFKQRRIKLGVTQADVGSALANLKIPGVGSLSQSTICRFESLTLSHNNAIALKPILQAWLEEAE [M57A], the abundance fitness was -0.306 ± 0.13. For RDLEAFAERFKQRRIKLGVTQADVGSALANLKIPGVGSLSQSTICRFESLTLSHNNRIALKPILQAWLEEAE [M57R] the value was -0.904 ± 0.088. In the case of RDLEAFAERFKQRRIKLGVTQADVGSALANLKIPGVGSLSQSTICRFESLTLSHNNWIALKPILQAWLEEAE [M57W] it was -0.374 ± 0.075. With RDLEAFAERFKQRRIKLGVTQADVGSALANLKIPGVGSLSQSTICRFESLTLSHNNLIALKPILQAWLEEAE [M57L], the abundance fitness is -0.157 ± 0.062.

In the case of RDLEAFAERFKQRRIKLGVTQADVGSALANLKIPGVGSLSQSTICRFESLTLSHNNPIALKPILQAWLEEAE [M57P], the abundance fitness was -0.924 ± 0.11. For RDLEAFAERFKQRRIKLGVTQADVGSALANLKIPGVGSLSQSTICRFESLTLSHNNCIALKPILQAWLEEAE [M57C] the value was -0.251 ± 0.11. For RDLEAFAERFKQRRIKLGVTQADVGSALANLKIPGVGSLSQSTICRFESLTLSHNNKIALKPILQAWLEEAE [M57K] the value was -0.892 ± 0.34. Take RDLEAFAERFKQRRIKLGVTQADVGSALANLKIPGVGSLSQSTICRFESLTLSHNNSIALKPILQAWLEEAE [M57S]: the abundance fitness was -0.602 ± 0.081. Consider RDLEAFAERFKQRRIKLGVTQADVGSALANLKIPGVGSLSQSTICRFESLTLSHNNQIALKPILQAWLEEAE [M57Q], for which the abundance fitness is -0.859 ± 0.21. In the case of RDLEAFAERFKQRRIKLGVTQADVGSALANLKIPGVGSLSQSTICRFESLTLSHNNEIALKPILQAWLEEAE [M57E] it was -0.565 ± 0.086; in that of RDLEAFAERFKQRRIKLGVTQADVGSALANLKIPGVGSLSQSTICRFESLTLSHNNVIALKPILQAWLEEAE [M57V], -0.54 ± 0.11.
